{"source": "paper PMC12302472", "origin": "cited, not measured here", "biological_target": "ATOX1 (Homo sapiens) (UniProt O00244)", "sequence (O00244 whole entry)": "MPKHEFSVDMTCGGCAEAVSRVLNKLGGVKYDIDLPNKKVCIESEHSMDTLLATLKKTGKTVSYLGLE", "test": "SPR"}
{"substance": "MEMO1 (from UniProt Q9Y316)", "values": [{"measurement": "Kd", "value": 210, "unit": "nM"}]}
